Measured values: publication PMC4278676

Substrate: Nc1ncnc2c1ncn2[C@@H]1O[C@H](COP(=O)(O)OP(=O)(O)OP(=O)(O)O)[C@@H](O)[C@H]1O
Experiment: purified protein
Conditions: co-substrate Co(II)Cbi^+

B1: SeCobA (Salmonella enterica subsp. enterica serovar Typhimurium str. LT2) (protein)
chain: MSDERYQQRQQKVKDRVDARVAQAQEERGIIIVFTGNGKGKTTAAFGTAARAVGHGKNVGVVQFIKGTWPNGERNLLEPHGVEFQVMATGFTWETQNREADTAACMAVWQHGKRMLADPLLDMVVLDELTYMVAYDYLPLEEVISALNARPGHQTVIITGRGCHRDILDLADTVSELRPVKHAFDAGVKAQMGIDY
Km: 25.4 ± 9.0 µM
kcat: 0.0067 s⁻¹
kcat/Km: 260 M⁻¹ s⁻¹
